B1: 14-3-3ζ dimer (natural protein)
chain: MDKNELVQKAKLAEQAERYDDMAACMKSVTEQGAELSNEERNLLSVAYKNVVGARRSSWRVVSSIEQKTEGAEKKQQMAREYREKIETELRDICNDVLSLLEKFLIPNASQAESKVFYLKMKGDYYRYLAEVAAGDDKKGIVDQSQQAYQEAFEISKKEMQPTHPIRLGLALNFSVFYYEILNSPEKACSLAKTAFDEAIAELDTLSEESYKDSTLIMQLLRDNLTLWTSDTQGDEAEAGEGGEN

What all share (test): FP
Test [1] addresses FAM-tagged PKCε pSer346/pSer350 phosphopeptide (UniProt P16054, phosphoserine at 346; phosphoserine at 350; FAM label (end not stated)).
Test [2] deals with FAM-tagged PKCε pSer346 phosphopeptide (UniProt P16054, phosphoserine at 346; FAM label (end not stated)).
The target in the test “14-3-3ζ dimer” is B1.

Where no end group is shown, it is not given here. [ ]: non-standard residue; d: D form. pS = N[C@@H](COP(=O)(O)O)C(=O)O

Broadly, the Kd is the equilibrium constant for the complex coming apart. A low value points to a tighter complex.

B1: the Kd in test [1] was determined as 335 µM; in test [2], 31.5 µM.

B2: FAM-tagged PKCε pSer346/pSer350/pSer368 phosphopeptide (peptide)
chain: DRSK[pS]APT[pS]PCDQEIKELENNIRKAL[pS]FDNR
modifications: also: FAM label (end not given here)
In the test with 14-3-3ζ dimer, B2 showed a dissociation constant Kd of 0.147 µM.

B3: FAM-tagged PKCε pSer346/pSer368 phosphopeptide (peptide)
chain: DRSK[pS]APTSPCDQEIKELENNIRKAL[pS]FDNR
modifications: also: FAM label (end not given here)
Consider B3, for which the Kd with 14-3-3ζ dimer was 0.03 µM.

Values taken from publication PMC8238520 (2021).
